The numbers were not newly measured in article PMC5487894, which cites them from elsewhere.

The target of data set [1] is Rac (Homo sapiens) (UniProt P63000).
Data set [2] shares this target. This is another data set of the same source.
Data set [3] deals with CDC12 20-40 (Schizosaccharomyces pombe) (UniProt Q10059).
The target of a further data set is Rab5 (Homo sapiens) (UniProt P20339).

Where two headings read alike, the source gives them in different places.

UniProt P20339, sequence (P20339 whole entry): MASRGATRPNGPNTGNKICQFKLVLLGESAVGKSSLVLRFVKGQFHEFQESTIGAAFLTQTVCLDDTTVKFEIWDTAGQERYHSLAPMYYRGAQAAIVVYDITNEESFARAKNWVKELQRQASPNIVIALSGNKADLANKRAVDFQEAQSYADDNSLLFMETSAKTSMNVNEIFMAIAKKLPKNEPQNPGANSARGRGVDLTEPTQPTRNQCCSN
UniProt Q10059, sequence (Q10059 20-40): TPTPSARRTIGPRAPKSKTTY

With IRSp53 RCB domain (from UniProt Q9UQB8), the Kd in the data set with Rac (Homo sapiens) [1] was 20000 nM; with Rac (Homo sapiens) [2], 3000 nM.

Take CDC15 F-BAR (from UniProt Q09822): the Kd in data set [3] is 2 nM.

On to APPL1 BAR-PH (from UniProt Q9UKG1), for which the Kd in the data set with Rab5 (Homo sapiens) was 900 nM.
